Changes are numbered by the printed parent chain. Names may count otherwise.
T1: cynomolgus monkey FcγRIIb extracellular domain, C-terminal His-tag (cynomolgus monkey)
T1 construct: also called cyno FcγRIIb; cynoFcγRIIb
T1 chain: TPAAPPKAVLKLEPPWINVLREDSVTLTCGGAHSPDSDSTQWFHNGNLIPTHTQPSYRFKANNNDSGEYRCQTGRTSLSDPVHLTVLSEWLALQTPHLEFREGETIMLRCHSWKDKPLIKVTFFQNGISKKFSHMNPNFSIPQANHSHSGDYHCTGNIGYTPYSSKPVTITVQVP

T2: cynomolgus monkey FcγRIIa1 extracellular domain, C-terminal His-tag (cynomolgus monkey)
T2 construct: also called cyno FcγRIIa1; FcgRIIa1; not shown: His-tag added to the C-terminus
T2 chain: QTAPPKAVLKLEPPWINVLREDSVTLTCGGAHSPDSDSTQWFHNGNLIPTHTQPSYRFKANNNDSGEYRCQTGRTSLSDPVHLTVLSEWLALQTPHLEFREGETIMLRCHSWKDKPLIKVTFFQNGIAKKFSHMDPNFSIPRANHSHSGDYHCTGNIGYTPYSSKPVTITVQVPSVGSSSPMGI

T3: cynomolgus monkey FcγRIIa2 extracellular domain, C-terminal His-tag (cynomolgus monkey)
T3 construct: also called cyno FcγRIIa2; FcgRIIa2; not shown: His-tag added to the C-terminus
T3 chain: T2 chain with P95T, T121A, I127K, A128S, K130N, D135N, R142Q

T4: cynomolgus monkey FcγRIIa3 extracellular domain, C-terminal His-tag (cynomolgus monkey)
T4 construct: also called cyno FcγRIIa3; FcgRIIa3; not shown: His-tag added to the C-terminus
T4 chain: T2 chain with P95T, T121A, A128S, H133P, D135N

T5: cynomolgus monkey FcγRIIb extracellular domain, C-terminal His-tag (cynomolgus monkey)
T5 construct: also called cyno FcγRIIb; cynoFcγRIIb; not shown: His-tag added to the C-terminus
T5 chain: T1 chain

T6: human FcγRIIaR extracellular domain, C-terminal His-tag (human, UniProt P12318 34-217)
T6 construct: also called human FcγRIIa (type R); FcgRIIaR; not shown: His-tag added to the C-terminus
T6 chain: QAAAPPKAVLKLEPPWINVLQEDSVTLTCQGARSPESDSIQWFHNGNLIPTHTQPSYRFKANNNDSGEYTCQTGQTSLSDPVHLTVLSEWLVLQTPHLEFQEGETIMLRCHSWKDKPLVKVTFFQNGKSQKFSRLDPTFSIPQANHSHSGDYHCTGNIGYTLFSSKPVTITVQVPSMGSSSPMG

T7: human FcγRIIb extracellular domain, C-terminal His-tag (human, UniProt P31994 43-217)
T7 construct: also called FcgRIIb; not shown: His-tag added to the C-terminus
T7 sequence: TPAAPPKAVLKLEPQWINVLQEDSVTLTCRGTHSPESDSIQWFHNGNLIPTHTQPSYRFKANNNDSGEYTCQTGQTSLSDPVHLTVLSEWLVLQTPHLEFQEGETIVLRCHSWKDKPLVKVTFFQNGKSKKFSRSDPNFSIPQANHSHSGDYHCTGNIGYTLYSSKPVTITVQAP

B1: MS_M103205H795-SG1/M103202L889-SK1 (antibody, human IgG1, kappa)
heavy: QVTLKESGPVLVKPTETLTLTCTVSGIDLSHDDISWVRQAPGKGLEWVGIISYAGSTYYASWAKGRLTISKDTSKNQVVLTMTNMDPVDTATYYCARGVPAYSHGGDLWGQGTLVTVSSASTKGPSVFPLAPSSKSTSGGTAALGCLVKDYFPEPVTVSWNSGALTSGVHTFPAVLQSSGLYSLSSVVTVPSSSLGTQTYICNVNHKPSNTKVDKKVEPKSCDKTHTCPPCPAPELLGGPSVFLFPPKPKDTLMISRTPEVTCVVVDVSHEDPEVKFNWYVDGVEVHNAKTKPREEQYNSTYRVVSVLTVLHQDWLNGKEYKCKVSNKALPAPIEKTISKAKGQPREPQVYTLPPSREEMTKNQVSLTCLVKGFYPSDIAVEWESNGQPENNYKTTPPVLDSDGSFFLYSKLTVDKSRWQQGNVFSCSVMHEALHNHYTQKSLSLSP
light: DIVMTQSPATLSLSPGERATLSCTSSQSVYHANWLSWFQQKPGQPPKLLIYWASTLAYGVPSRFSGSGSGTDFTLTISSLQPEDAATYYCAGGYGGGRYAFGQGTKVEIKRTVAAPSVFIFPPSDEQLKSGTASVVCLLNNFYPREAKVQWKVDNALQSGNSQESVTEQDSKDSTYSLSSTLTLSKADYEKHKVYACEVTHQGLSSPVTKSFNRGEC
notes: Parent of the Fc variants; also called MS1032LO06-SG1
B2: M103205H795-MY048/M103202L889-SK1 (antibody, human IgG1, kappa)
heavy: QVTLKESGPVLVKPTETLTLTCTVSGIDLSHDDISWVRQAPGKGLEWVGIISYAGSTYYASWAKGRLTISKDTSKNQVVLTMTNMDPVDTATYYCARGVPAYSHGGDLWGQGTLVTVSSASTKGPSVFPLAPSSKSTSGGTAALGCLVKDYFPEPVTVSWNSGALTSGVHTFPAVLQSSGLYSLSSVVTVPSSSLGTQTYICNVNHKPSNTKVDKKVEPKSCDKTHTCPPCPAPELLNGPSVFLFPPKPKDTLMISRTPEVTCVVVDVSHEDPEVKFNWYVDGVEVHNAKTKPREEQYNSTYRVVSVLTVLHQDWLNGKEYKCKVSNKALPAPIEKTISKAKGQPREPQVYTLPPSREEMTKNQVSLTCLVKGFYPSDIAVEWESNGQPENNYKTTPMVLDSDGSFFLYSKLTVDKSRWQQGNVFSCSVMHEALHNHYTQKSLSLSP
light: B1 light
notes: Substitutions introduced into M103205H795-SG1; expressed with M103202L889-SK1 as light chain
B3: M103205H795-MY147/M103202L889-SK1 (antibody, human IgG1, kappa)
heavy: QVTLKESGPVLVKPTETLTLTCTVSGIDLSHDDISWVRQAPGKGLEWVGIISYAGSTYYASWAKGRLTISKDTSKNQVVLTMTNMDPVDTATYYCARGVPAYSHGGDLWGQGTLVTVSSASTKGPSVFPLAPSSKSTSGGTAALGCLVKDYFPEPVTVSWNSGALTSGVHTFPAVLQSSGLYSLSSVVTVPSSSLGTQTYICNVNHKPSNTKVDKKVEPKSCDKTHTCPPCPAPELWNGPSVFLFPPKPKDTLMISRTPEVTCVVVDVSEEDPEVKFNWYVDGVEVHNAKTKPREEQYNSTYRVVSVLTVLHQDWLNGKEYKCKVSNKALPAPIEKTISKAKGQPREPQVYTLPPSREEMTKNQVSLTCLVKGFYPSDIAVEWESNGQPENNYKTTPMVLDSDGSFFLYSKLTVDKSRWQQGNVFSCSVMHEALHNHYTQKSLSLSP
light: B1 light
notes: as for B2
B4: M103205H795-MY049/M103202L889-SK1 (antibody, human IgG1, kappa)
heavy: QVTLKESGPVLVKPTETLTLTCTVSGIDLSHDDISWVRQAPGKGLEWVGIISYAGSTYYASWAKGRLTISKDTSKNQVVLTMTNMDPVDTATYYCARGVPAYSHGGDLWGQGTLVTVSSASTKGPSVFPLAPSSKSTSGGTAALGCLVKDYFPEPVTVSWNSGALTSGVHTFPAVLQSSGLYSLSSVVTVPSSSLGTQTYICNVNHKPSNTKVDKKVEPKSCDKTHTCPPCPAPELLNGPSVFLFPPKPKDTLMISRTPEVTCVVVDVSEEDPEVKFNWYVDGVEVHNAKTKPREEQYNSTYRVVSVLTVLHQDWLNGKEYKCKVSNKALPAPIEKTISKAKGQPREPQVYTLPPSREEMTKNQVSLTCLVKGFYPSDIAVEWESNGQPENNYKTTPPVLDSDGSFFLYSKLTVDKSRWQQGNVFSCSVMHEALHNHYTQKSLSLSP
light: B1 light
notes: as for B2
B5: M103205H795-MY101/M103202L889-SK1 (antibody, human IgG1, kappa)
heavy: B3 heavy with W237L, A332K
light: B1 light
notes: also called MS1032LO06-MY101
B6: M103205H795-MY050/M103202L889-SK1 (antibody, human IgG1, kappa)
heavy: B3 heavy with W237L, S269A, M398P
light: B1 light
notes: as for B2
B7: M103205H795-MY052/M103202L889-SK1 (antibody, human IgG1, kappa)
heavy: B3 heavy with W237L
light: B1 light
notes: as for B2
B8: M103205H795-MY047/M103202L889-SK1 (antibody, human IgG1, kappa)
heavy: not shown
light: B1 light
notes: as for B2
B9: M103205H795-MY197/M103202L889-SK1 (antibody, human IgG1, kappa)
heavy: B3 heavy with W237L, E270D, A332K
light: B1 light
notes: as for B2
B10: M103205H795-MY115/M103202L889-SK1 (antibody, human IgG1, kappa)
heavy: B3 heavy with W237L, S269A
light: B1 light
notes: as for B2
B11: M103205H795-MY105/M103202L889-SK1 (antibody, human IgG1, kappa)
heavy: B3 heavy with W237L, S241V
light: B1 light
notes: as for B2
B12: M103205H795-MY001/M103202L889-SK1 (antibody, human IgG1, kappa)
heavy: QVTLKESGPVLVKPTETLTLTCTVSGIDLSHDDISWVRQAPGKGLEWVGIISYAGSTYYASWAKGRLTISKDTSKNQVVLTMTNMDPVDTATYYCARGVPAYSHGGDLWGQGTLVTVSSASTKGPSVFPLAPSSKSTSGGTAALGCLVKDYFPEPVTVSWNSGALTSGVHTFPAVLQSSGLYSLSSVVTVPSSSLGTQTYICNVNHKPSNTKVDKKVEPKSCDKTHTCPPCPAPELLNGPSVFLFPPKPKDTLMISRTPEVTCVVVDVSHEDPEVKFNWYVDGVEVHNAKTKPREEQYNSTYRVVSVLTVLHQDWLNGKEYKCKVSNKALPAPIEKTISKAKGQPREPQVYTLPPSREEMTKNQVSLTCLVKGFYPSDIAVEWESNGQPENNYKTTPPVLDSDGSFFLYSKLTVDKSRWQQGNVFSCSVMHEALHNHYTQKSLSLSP
light: B1 light
notes: as for B2
B13: M103205H795-MY141/M103202L889-SK1 (antibody, human IgG1, kappa)
heavy: B3 heavy with W237L, S269A, E270H
light: B1 light
notes: as for B2
B14: M103205H795-MY117/M103202L889-SK1 (antibody, human IgG1, kappa)
heavy: B3 heavy with L236W, W237L, S269A
light: B1 light
notes: as for B2
B15: M103205H795-MY051/M103202L889-SK1 (antibody, human IgG1, kappa)
heavy: B3 heavy with W237L, P273G, M398P
light: B1 light
notes: as for B2
B16: MS1032LO06-SG1 (M103205H795-SG1/M103202L889-SK1) (antibody, human IgG1, kappa)
heavy: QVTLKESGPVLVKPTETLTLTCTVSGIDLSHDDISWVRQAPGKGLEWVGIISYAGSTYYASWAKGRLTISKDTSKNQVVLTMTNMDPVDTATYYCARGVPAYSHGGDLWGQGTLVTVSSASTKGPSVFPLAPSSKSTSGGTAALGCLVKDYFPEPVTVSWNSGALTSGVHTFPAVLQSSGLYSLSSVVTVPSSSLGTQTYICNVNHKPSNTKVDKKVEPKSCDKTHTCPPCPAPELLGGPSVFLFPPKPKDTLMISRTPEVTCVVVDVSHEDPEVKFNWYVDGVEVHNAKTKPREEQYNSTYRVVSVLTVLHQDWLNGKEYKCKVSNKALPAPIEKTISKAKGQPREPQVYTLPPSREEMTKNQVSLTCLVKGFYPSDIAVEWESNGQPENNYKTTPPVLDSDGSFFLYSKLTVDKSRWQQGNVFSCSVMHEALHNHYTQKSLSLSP
light: B1 light
notes: Anti-latent myostatin antibody
B17: MS1032LO06-MY351 (M103205H795-MY351/M103202L889-SK1) (antibody, human IgG1, kappa)
heavy: B3 heavy with W237L, E270D, Q313R, A332K, M398P, D415K
light: B1 light
notes: CH MY351 = SG1 with G236N/H268D/Q311R/A330K/D413K (EU numbering); also called MS103205H795-MY351
B18: MS1032LO06-MY201 (M103205H795-MY201/M103202L889-SK1) (antibody, human IgG1, kappa)
heavy: B3 heavy with W237L, E270D, A332K, M398P
light: B1 light
notes: CH MY201 = SG1 with G236N/H268D/A330K (EU numbering); also called MS103205H795-MY201

Target: T1, cynomolgus monkey FcγRIIb extracellular …
Experiment: SPR (Biacore), antibody captured, FcgR analyte

Row | Kd [µM] | Binder
1 | 1.8 | B1
2 | 0.91 | B2
3 | 0.96 | B3
4 | 0.85 | B4
5 | 0.55 | B5
6 | 1.4 | B6
7 | 0.46 | B7
8 | 2.6 | B8
9 | 0.17 | B9
10 | 0.78 | B10
11 | 0.39 | B11
12 | 1.8 | B12
13 | 1.8 | B13
14 | 1 | B14
15 | 1.9 | B15

Target: T2, cynomolgus monkey FcγRIIa1 …
Experiment: SPR (BIACORE), antibody captured, soluble FcgR as analyte, 25C
Experimental: (§1) The kinetic analysis of interactions between these antibodies and FcγR was carried out using BIACORE® T200 or BIACORE® 4000 (GE Healthcare). HBS-EP+ (GE Healthcare) was used as the running buffer, and the measurement temperature was set to 25° C. A chip produced by immobilizing Protein A. Protein A/G or mouse anti-human IgG kappa light chain (BD Biosciences) onto a Series S Sensor Chip CM4 or CM5 (GE Healthcare) by the amine-coupling method was used. […] After the measurement, the antibody captured on the chip was washed off by allowing reaction with 10 mM glycine-HCl, pH1.5 and 25 mM NaOH so that the chip was regenerated and used repeatedly. The sensorgrams obtained as measurement results were analyzed by the 1:1 Langmuir binding model using the BIACORE® Evaluation Software to calculate the binding rate constant ka (L/mol/s) and dissociation rate constant kd (l/s), and the dissociation constant KD (mol/L) was calculated from these values. […] Regarding such interactions, KD values were calculated using the following 1:1 binding model described in BIACORE® T100 Software Handbook BR1006-48 Edition AE.
(§2) The behavior of interacting molecules according to the 1:1 binding model on BIACORE® can be described by Equation 1: Req=C·R max/(KD+C)+RI, wherein, Req is a plot of steady-state binding levels to analyte concentration. C is concentration, RI is bulk refractive index contribution in the sample, and Rmax is analyte binding capacity of the surface. When this equation is rearranged, KD can be expressed as Equation 2: KD=C·Rmax/(Req−RI)−C. KD can be calculated by substituting the values of Rmax, RI, and C into Equation 1 or Equation 2. From the current measurement conditions, RI=0, C=2 μmol/L can be used.

Row | Kd [µM] | Binder
16 | 4.8 | B16
17 | 1.6 | B17
18 | 1.5 | B18

Target: T3, cynomolgus monkey FcγRIIa2 …
Experiment: as above
Experimental: as §1, §2

Row | Kd [µM] | Binder
19 | 4.7 | B16
20 | 1.3 | B17
21 | 1.2 | B18

Target: T4, cynomolgus monkey FcγRIIa3 …
Experiment: as above
Experimental: as §1, §2

Row | Kd [µM] | Binder
22 | 8.6 | B16
23 | 2.2 | B17
24 | 1.8 | B18

Target: T5, cynomolgus monkey FcγRIIb extracellular …
Experiment: as above
Experimental: as §1, §2

Row | Kd [µM] | Binder
25 | 1.9 | B16
26 | 0.38 | B17
27 | 0.33 | B18

Target: T8, cynomolgus monkey FcγRIIIaS extracellular domain, C-terminal His-tag (cynomolgus monkey, UniProt A3RFZ7 21-206 (rhesus entry))
T8 construct: also called cyno FcγRIIIaS; FcgRIIIaS; not shown: His-tag added to the C-terminus
Experiment: as above
Experimental: as §1, §2

T8 sequence (A3RFZ7 21-206): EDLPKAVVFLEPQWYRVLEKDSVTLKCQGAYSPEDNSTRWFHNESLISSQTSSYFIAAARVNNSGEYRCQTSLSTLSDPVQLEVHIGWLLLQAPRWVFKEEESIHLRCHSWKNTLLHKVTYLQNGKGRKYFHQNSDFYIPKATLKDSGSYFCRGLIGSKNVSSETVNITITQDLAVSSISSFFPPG

Row | Kd [µM] | Binder
28 | 0.28 | B16
29 | 4.1 | B17
30 | 3.7 | B18

Target: T6, human FcγRIIaR extracellular domain, …
Experiment: as above
Experimental: as §1, §2

Row | Kd [µM] | Binder
31 | 1 | B16
32 | 1.6 | B17
33 | 1.2 | B18

Target: T7, human FcγRIIb extracellular domain, …
Experiment: as above
Experimental: as §1, §2

Row | Kd [µM] | Binder
34 | 4.7 | B16
35 | 0.97 | B17
36 | 0.85 | B18

Target: T9, human FcγRIIIaV extracellular domain, C-terminal His-tag (human, UniProt P08637 17-208)
T9 construct: also called FcgRIIIaV; not shown: His-tag added to the C-terminus
Experiment: as above
Experimental: as §1, §2

T9 sequence (P08637 17-208 F176V): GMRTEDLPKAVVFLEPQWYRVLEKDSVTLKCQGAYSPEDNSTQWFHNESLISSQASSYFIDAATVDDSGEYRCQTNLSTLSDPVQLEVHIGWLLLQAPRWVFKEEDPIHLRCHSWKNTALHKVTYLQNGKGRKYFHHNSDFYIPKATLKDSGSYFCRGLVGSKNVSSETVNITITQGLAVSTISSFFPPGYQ

Row | Kd [µM] | Binder
37 | 0.62 | B16
38 | 7.4 | B17
39 | 37 | B18
